Columns and labels:
FGFR1 = FGFR1 (UniProt P11362); assay: phosphorylation enrichment, bacterial display (enrichment ratio); higher = better substrate or ligand; peptides without Tyr show the background
Fer (mouse) = assay: as above
Fes = Fes (UniProt P07332); assay: as above
EPHB1 = EPHB1 (UniProt P54762); assay: as above
c-Src = assay: as above
MERTK = MERTK (UniProt Q12866); assay: as above
c-Abl (mouse) = assay: as above
FGFR3 = FGFR3 (UniProt P22607); assay: as above
EPHB2 = EPHB2 (UniProt P29323); assay: as above
EPHB2, sequence (P29323 whole entry, looked up): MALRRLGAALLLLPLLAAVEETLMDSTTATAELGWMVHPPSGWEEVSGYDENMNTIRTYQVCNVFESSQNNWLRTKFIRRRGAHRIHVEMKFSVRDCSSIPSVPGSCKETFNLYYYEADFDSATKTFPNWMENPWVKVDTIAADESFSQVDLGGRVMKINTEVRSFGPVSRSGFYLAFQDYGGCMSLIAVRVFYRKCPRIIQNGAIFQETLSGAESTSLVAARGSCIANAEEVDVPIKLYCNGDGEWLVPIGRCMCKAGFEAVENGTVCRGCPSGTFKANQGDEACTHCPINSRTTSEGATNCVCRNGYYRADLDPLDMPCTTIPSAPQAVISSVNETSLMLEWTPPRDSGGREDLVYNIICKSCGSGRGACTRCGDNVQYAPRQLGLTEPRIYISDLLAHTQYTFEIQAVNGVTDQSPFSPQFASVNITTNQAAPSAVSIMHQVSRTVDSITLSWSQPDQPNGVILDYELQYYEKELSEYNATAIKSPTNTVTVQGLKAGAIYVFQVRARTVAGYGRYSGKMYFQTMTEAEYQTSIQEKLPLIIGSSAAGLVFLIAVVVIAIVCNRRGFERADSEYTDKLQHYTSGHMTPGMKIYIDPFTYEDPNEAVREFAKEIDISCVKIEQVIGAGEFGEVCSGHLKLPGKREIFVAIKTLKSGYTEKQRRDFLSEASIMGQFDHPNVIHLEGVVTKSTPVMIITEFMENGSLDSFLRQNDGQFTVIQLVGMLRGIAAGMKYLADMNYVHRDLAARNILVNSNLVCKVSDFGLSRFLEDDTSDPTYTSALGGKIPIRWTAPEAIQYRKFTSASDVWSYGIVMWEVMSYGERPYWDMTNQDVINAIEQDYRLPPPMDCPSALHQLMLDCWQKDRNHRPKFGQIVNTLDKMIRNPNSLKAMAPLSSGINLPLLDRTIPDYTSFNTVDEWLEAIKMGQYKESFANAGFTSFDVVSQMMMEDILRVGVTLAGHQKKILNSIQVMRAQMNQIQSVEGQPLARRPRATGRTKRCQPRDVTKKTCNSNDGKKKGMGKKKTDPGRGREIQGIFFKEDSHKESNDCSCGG

Fyn = Fyn (UniProt P06241); assay: as above
AncSZ = assay: as above
Hck = Hck (UniProt P08631); assay: as above
Jak2 = Jak2 (UniProt O60674); assay: as above
Jak2, sequence (O60674 whole entry, looked up): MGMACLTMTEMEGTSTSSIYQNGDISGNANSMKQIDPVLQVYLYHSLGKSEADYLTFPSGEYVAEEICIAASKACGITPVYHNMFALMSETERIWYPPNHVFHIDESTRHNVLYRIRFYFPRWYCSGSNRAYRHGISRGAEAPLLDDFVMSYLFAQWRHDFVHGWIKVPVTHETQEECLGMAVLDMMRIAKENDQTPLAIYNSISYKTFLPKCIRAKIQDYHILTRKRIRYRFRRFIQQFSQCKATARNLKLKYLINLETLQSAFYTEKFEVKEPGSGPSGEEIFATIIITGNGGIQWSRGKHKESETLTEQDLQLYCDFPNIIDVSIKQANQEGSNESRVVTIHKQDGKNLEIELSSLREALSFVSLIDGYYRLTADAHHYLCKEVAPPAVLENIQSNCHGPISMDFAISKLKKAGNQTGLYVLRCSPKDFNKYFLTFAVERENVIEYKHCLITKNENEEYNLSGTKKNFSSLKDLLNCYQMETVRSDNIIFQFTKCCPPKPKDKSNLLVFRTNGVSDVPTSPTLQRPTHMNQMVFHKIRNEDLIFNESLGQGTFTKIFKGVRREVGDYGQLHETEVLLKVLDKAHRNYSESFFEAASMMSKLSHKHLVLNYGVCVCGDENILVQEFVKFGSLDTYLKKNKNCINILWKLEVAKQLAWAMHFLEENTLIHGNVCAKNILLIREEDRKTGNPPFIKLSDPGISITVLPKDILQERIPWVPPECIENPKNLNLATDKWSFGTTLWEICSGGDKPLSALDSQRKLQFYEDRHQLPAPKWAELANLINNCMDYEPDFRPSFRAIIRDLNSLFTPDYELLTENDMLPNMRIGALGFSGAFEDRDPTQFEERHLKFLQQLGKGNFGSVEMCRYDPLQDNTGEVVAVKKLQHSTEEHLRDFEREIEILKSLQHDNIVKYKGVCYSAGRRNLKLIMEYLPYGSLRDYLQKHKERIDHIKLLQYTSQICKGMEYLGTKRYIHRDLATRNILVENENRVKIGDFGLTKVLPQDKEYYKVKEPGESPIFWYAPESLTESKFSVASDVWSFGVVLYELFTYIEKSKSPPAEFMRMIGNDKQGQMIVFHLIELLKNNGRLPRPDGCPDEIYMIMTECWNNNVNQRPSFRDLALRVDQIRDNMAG

Grb2 SH2 = Grb2 SH2 (UniProt P62993); assay: SH2 binding enrichment of the phosphorylated peptide, bacterial display (enrichment ratio); higher = better substrate or ligand; peptides without Tyr show the background
Grb2 SH2, sequence (P62993 whole entry, looked up): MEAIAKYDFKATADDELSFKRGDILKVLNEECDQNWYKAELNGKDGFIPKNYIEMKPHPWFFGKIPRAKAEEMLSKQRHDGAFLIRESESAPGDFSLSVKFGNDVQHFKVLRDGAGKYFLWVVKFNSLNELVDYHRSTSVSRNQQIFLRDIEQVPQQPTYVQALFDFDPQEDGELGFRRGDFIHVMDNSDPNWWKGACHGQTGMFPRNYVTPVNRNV

c-Src SH2 = assay: as above
SHP2-C SH2 = assay: as above
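For SH2 binding enrichment of the phosphorylated peptide, bacterial display in this document: peptide library displayed on the E. coli surface as eCPX fusions, selected cells deep-sequenced, score is each peptide's frequency after selection divided by its frequency in the input.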
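For phosphorylation enrichment, bacterial display in this document: 11-residue human phosphosite peptides and single-mutation variants displayed on the E. coli surface, counted by deep sequencing, each peptide's frequency after selection divided by its frequency in the unselected input library; frequency after pTyr selection over input frequency; kinase dosed for 20-30% of maximal phosphorylation in three min.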

EPHB1, sequence (P54762 whole entry, looked up): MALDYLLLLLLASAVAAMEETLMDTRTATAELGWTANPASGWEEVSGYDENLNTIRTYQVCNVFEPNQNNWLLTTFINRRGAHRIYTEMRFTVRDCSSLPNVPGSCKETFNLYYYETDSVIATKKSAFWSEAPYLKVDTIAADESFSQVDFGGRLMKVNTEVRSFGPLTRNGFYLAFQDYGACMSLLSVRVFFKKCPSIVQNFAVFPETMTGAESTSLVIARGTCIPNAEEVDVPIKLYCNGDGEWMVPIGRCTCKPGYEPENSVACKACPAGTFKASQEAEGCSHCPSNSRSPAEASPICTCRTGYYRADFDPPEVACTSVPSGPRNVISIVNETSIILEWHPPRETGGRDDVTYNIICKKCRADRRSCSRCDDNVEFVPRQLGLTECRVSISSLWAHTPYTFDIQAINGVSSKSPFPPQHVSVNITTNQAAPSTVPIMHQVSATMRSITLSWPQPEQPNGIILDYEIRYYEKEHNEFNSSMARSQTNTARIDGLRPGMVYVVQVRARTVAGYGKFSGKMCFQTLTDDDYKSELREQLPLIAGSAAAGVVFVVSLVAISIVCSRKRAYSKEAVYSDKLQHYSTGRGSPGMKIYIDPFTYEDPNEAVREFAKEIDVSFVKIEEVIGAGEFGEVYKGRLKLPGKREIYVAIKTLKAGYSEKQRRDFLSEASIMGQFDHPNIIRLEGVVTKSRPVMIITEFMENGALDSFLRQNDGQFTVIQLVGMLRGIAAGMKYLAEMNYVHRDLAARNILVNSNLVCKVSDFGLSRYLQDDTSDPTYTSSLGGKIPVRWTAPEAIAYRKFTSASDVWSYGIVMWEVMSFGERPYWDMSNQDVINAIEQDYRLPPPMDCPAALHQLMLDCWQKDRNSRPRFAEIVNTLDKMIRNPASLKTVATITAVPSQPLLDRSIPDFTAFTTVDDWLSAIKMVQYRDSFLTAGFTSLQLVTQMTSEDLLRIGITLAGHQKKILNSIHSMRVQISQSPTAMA
FGFR3, sequence (P22607 whole entry, looked up): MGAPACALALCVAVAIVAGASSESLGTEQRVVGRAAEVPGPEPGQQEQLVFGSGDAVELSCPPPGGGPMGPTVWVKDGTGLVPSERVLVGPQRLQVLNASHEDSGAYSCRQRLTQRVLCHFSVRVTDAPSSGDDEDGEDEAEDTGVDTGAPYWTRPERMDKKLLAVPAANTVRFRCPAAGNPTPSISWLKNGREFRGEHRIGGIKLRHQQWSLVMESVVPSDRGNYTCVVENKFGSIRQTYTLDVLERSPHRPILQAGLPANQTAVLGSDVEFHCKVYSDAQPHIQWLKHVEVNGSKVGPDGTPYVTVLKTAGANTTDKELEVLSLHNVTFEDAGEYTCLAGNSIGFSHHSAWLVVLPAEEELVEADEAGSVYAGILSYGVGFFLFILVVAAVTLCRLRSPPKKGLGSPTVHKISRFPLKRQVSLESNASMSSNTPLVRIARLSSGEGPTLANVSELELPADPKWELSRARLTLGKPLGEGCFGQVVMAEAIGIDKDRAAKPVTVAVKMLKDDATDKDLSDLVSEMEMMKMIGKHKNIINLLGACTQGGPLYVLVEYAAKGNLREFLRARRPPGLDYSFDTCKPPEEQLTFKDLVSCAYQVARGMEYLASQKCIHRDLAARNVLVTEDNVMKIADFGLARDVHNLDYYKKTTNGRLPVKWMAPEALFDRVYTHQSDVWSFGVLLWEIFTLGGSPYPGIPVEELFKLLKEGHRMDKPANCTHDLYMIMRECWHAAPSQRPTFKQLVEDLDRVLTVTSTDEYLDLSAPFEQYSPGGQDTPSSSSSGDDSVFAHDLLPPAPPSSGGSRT
FGFR1, sequence (P11362 whole entry, looked up): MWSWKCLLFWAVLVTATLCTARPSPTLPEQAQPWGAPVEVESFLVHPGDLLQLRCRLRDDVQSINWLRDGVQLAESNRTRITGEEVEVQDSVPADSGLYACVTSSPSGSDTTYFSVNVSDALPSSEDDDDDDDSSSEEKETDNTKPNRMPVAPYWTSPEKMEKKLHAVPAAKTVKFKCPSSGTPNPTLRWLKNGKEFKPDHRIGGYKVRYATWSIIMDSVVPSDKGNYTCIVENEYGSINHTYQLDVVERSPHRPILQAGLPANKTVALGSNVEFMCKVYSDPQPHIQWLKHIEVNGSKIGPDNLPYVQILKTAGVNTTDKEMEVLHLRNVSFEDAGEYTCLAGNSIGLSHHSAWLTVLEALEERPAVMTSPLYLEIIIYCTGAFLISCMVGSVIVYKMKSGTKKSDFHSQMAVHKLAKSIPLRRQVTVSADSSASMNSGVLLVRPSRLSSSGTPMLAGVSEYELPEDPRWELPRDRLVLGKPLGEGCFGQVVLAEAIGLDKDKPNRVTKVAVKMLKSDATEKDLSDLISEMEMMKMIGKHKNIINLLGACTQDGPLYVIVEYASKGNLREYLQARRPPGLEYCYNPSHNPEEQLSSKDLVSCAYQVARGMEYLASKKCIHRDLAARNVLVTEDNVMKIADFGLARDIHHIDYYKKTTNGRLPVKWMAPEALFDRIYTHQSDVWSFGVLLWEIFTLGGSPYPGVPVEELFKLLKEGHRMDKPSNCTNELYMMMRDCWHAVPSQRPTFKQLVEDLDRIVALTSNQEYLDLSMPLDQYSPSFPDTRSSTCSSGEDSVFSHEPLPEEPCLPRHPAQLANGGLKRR

Sequence | phosphorylation enrichment (FGFR1) | phosphorylation enrichment (Fer (mouse)) | phosphorylation enrichment (Fes) | phosphorylation enrichment (EPHB1) | phosphorylation enrichment (c-Src) | phosphorylation enrichment (MERTK) | phosphorylation enrichment (c-Abl (mouse)) | phosphorylation enrichment (FGFR3) | phosphorylation enrichment (EPHB2) | phosphorylation enrichment (Fyn) | phosphorylation enrichment (AncSZ) | phosphorylation enrichment (Hck) | phosphorylation enrichment (Jak2) | SH2 binding enrichment (Grb2 SH2) | SH2 binding enrichment (c-Src SH2) | SH2 binding enrichment (SHP2-C SH2)
SGTYQYIIAKF [FOXL2_Y83_I80T] | 3.65 | 2.58 | 1.51 | 4.98 | 0.943 | 5.26 | 1.17 | 2.42 | 1.53 | 0.749 | 1.43 | 2.06 | 1.29 | 0.74 | 0.696 | 0.541
SHEELYKWFTS [DYNC1H1_Y3051] | 5.57 | 3.4 | 1.21 | 0.608 | 1.55 | 4.28 | 1.33 | 3.6 | 0.577 | 0.918 | 1.28 | 1.25 | 1.05 | 0.887 | 0.562 | 0.837
SHGQDYLAGNK [GSTA2_Y147_V149A] | 0.597 | 0.421 | 0.845 | 0.348 | 0.404 | 0.471 | 0.452 | 0.49 | 0.36 | 0.458 | 0.641 | 0.364 | 0.64 | 1.11 | 0.583 | 0.693
SHNKFYMLVAR [MFSD8_Y134_YF] | 0.532 | 0.607 | 1.15 | 0.673 | 0.36 | 0.479 | 0.705 | 0.875 | 0.607 | 0.452 | 1.15 | 0.475 | 1.1 | 1.4 | 1.04 | 1.72
SKDQICPMKLK [RANBP17_Y823_Y823C] | 0.595 | 0.614 | 0.781 | 0.385 | 0.505 | 0.553 | 0.632 | 0.643 | 0.565 | 0.599 | 0.825 | 0.573 | 0.746 | 1.08 | 0.744 | 0.586
SKEPYYVRCIK [MYO1D_Y586] | 0.58 | 0.501 | 0.966 | 0.566 | 0.451 | 0.403 | 0.705 | 0.669 | 0.511 | 0.417 | 1.06 | 0.405 | 1 | 0.748 | 0.498 | 0.674
SKNSKYNAEST [PSEN1_Y315] | 0.339 | 0.396 | 0.609 | 0.309 | 0.425 | 0.35 | 0.52 | 0.366 | 0.426 | 0.363 | 0.482 | 0.351 | 0.673 | 0.759 | 0.489 | 0.595
SKQGKYLNWDA [ATM_Y54] | 0.437 | 0.454 | 0.856 | 0.384 | 0.445 | 0.399 | 0.491 | 0.527 | 0.507 | 0.396 | 0.79 | 0.427 | 0.666 | 6.01 | 0.653 | 0.82
SLGSPYEQPPR [PDLIM4_Y137_G138E] | 0.46 | 0.474 | 0.757 | 0.487 | 0.547 | 0.581 | 0.747 | 0.565 | 0.493 | 0.495 | 0.909 | 0.619 | 0.673 | 0.887 | 1.05 | 1
SLQSEYVHFGG [CDC14A_Y591_YF] | 1.36 | 0.442 | 0.963 | 1.09 | 0.889 | 0.509 | 0.734 | 0.972 | 0.746 | 0.783 | 1.24 | 0.596 | 0.875 | 0.899 | 0.629 | 0.993
SLQSEYVHYGG [CDC14A_Y591] | 0.811 | 0.441 | 0.774 | 0.854 | 0.848 | 0.558 | 0.6 | 0.95 | 0.973 | 0.69 | 0.919 | 0.927 | 0.655 | 0.587 | 0.533 | 0.69
SMAKYYASGIA [ACADSB_Y373_E376G] | 0.437 | 0.444 | 0.622 | 0.408 | 0.394 | 0.381 | 0.599 | 0.469 | 0.7 | 0.331 | 0.497 | 0.463 | 0.665 | 0.771 | 0.578 | 0.791
SPDMLYQYLKQ [RPAP3_Y567] | 3.36 | 11.6 | 0.692 | 3.35 | 1.96 | 7.39 | 0.856 | 2.04 | 1.78 | 1.18 | 1.09 | 8.16 | 0.727 | 1.21 | 0.68 | 0.659
SQQTFCRVSNM [ABCD1_Y181_Y181C_YF] | 0.446 | 0.408 | 0.679 | 0.461 | 0.411 | 0.412 | 0.567 | 0.615 | 0.515 | 0.453 | 0.636 | 0.5 | 0.554 | 0.808 | 0.502 | 0.713
SRASYYRKGGC [ALK_Y1283_Y1278S] | 0.414 | 0.326 | 0.5 | 0.34 | 0.52 | 0.428 | 0.585 | 0.335 | 0.371 | 0.38 | 0.522 | 0.37 | 0.641 | 0.644 | 0.607 | 0.473
SRDDDYETIAM [NPY1R_Y347] | 0.599 | 1.11 | 1.28 | 1.31 | 0.562 | 0.5 | 0.977 | 0.753 | 1.03 | 0.612 | 1.75 | 0.737 | 1.16 | 0.979 | 0.8 | 0.789
SRDPFYEMLTA [CYTH1_Y382_A386T] | 7.02 | 11 | 1.07 | 4.93 | 3.17 | 8.32 | 0.71 | 4.25 | 2.82 | 2.38 | 1.25 | 5.45 | 0.975 | 0.958 | 2.25 | 0.747

Sequence | phosphorylation enrichment (FGFR1) | phosphorylation enrichment (Fer (mouse)) | phosphorylation enrichment (Fes) | phosphorylation enrichment (EPHB1) | phosphorylation enrichment (c-Src) | phosphorylation enrichment (MERTK) | phosphorylation enrichment (c-Abl (mouse)) | phosphorylation enrichment (FGFR3) | phosphorylation enrichment (EPHB2) | phosphorylation enrichment (Fyn) | phosphorylation enrichment (AncSZ) | phosphorylation enrichment (Hck) | phosphorylation enrichment (Jak2) | SH2 binding enrichment (Grb2 SH2) | SH2 binding enrichment (c-Src SH2) | SH2 binding enrichment (SHP2-C SH2)
SRIWVYNHFRW [BRCA2_Y2621_YF] | 0.435 | 0.413 | 1.29 | 0.597 | 0.479 | 0.44 | 0.853 | 0.78 | 0.612 | 0.423 | 1.15 | 0.477 | 1.13 | 1.15 | 1.12 | 1.37
SRVTQYERNFE [SNX1_Y463_D466N] | 0.453 | 0.438 | 0.813 | 0.421 | 0.377 | 0.379 | 0.634 | 0.499 | 0.387 | 0.45 | 0.763 | 0.435 | 0.662 | 0.845 | 0.569 | 0.593
SSEYHCVGGFY [CTSC_Y347_Y347C] | 7.73 | 0.64 | 1.45 | 3.8 | 1.82 | 0.775 | 7.61 | 5.2 | 4.66 | 1.76 | 2.32 | 1.72 | 1.37 | 0.557 | 0.398 | 0.764
SSNLFYRCLTA [CNGA3_Y169_W171C_YF] | 0.491 | 0.497 | 1.36 | 0.638 | 0.454 | 0.42 | 1.06 | 0.742 | 0.632 | 0.384 | 1.03 | 0.429 | 1.12 | 0.808 | 0.399 | 0.518
SSSAIYDNPNL [DCP1B_Y191] | 0.411 | 9.27 | 0.737 | 12.2 | 5.76 | 8.1 | 22.5 | 0.457 | 15.6 | 8.1 | 0.898 | 9.85 | 0.632 | 0.688 | 0.706 | 0.53
SSVKPYRVFCD [FGB_Y266_YF] | 0.453 | 0.34 | 0.74 | 0.432 | 0.481 | 0.392 | 0.7 | 0.552 | 0.394 | 0.419 | 0.701 | 0.432 | 0.678 | 1.11 | 0.758 | 1.08
SSWPDYVRPLP [HSPB1_Y54_G53D] | 2.49 | 0.54 | 0.93 | 1.57 | 0.475 | 0.437 | 0.808 | 1.6 | 0.599 | 0.442 | 4.98 | 0.511 | 7.67 | 0.974 | 0.489 | 0.71
SVEELYAIPPD [PEAK1_Y797] | 5.57 | 5.23 | 1.59 | 3.15 | 3.28 | 9.81 | 9.56 | 5.64 | 13.6 | 2.88 | 3.92 | 4.24 | 1.78 | 0.746 | 0.543 | 0.733
SVKVYYKKCWF [EPHA7_Y202_S207F] | 0.432 | 0.433 | 1.14 | 0.553 | 0.448 | 0.356 | 0.856 | 0.596 | 0.531 | 0.375 | 1.12 | 0.382 | 1.08 | 0.712 | 0.501 | 0.657
SVTCPYSPALN [TP53_Y126_T125P] | 0.505 | 0.656 | 1.29 | 0.572 | 2.15 | 0.437 | 1.21 | 0.679 | 0.573 | 0.481 | 0.961 | 0.616 | 1.17 | 0.939 | 0.556 | 0.7
SVTCTNSPALN [TP53_Y126_Y126N] | 0.491 | 0.588 | 1.24 | 0.586 | 0.504 | 0.487 | 0.762 | 0.699 | 0.483 | 0.495 | 0.907 | 0.447 | 1.08 | 0.659 | 0.385 | 0.65
SVTCTYSPALN [TP53_Y126] | 0.517 | 0.626 | 1.72 | 0.794 | 0.66 | 0.456 | 0.976 | 0.984 | 0.723 | 0.489 | 1.53 | 0.641 | 1.45 | 0.766 | 0.401 | 0.616
SVTCTYSPTLN [TP53_Y126_A129T] | 0.606 | 0.667 | 1.58 | 0.92 | 0.58 | 0.503 | 0.926 | 0.912 | 0.682 | 0.566 | 1.48 | 0.625 | 1.4 | 0.639 | 0.469 | 0.551
SVTCTYYPALN [TP53_Y126_S127Y] | 0.499 | 0.556 | 1.36 | 0.645 | 0.575 | 0.412 | 1.01 | 0.831 | 0.617 | 0.48 | 1.52 | 0.592 | 1.36 | 0.68 | 0.373 | 0.693
SVVVCYEPPEV [TP53_Y220_P219C] | 0.509 | 0.678 | 1.19 | 0.751 | 0.518 | 0.457 | 0.849 | 0.78 | 0.697 | 0.573 | 1.78 | 0.616 | 1.07 | 0.814 | 0.584 | 0.656
SVVVPYEPHEV [TP53_Y220_P223H] | 0.542 | 1.38 | 1.25 | 0.716 | 0.513 | 0.493 | 0.803 | 0.835 | 0.615 | 0.54 | 1.05 | 0.577 | 1.18 | 0.726 | 0.569 | 0.781

Source: the supplement of paper PMC10065799, “High-throughput profiling of sequence recognition by tyrosine kinases and SH2 domains using bacterial peptide display” (eLife, 2023)
